# Assay results: publication PMC8765430, “MdaB and NfrA, Two Novel Reductases Important in the Survival and Persistence of the Major Enteropathogen Campylobacter jejuni” (Journal of Bacteriology, 2022)
# Positions count from the first letter of the chain named.
# T1: RrpA (Campylobacter jejuni, UniProt Q0P879 1-115)
# T1 sequence: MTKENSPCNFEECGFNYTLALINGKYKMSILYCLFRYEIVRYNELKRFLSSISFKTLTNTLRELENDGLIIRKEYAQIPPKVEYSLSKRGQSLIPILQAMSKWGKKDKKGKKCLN
# T2: RrpB (Campylobacter jejuni, UniProt Q0P870 1-110)
# T2 sequence: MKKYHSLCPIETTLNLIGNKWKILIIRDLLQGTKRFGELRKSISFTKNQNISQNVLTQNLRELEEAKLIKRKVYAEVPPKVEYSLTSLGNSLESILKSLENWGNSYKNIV
# B1: rrpA WT (Fig. S1) (dsDNA)
# DNA 1: GCATATAATATCATTTTCAATACAGAAAATAAAGTAATATACTATACTAAAGGAATGTTAAATGA
# DNA 2: TCATTTAACATTCCTTTAGTATAGTATATTACTTTATTTTCTGTATTGAAAATGATATTATATGC
# B2: rrpA (-2) (dsDNA)
# DNA 1: GCATAATCGAGCTTTCAATACAGAAAATAAAGTAATATCGAGCACTAAAGGAATGTTAAATGA
# DNA 2: TCATTTAACATTCCTTTAGTGCTCGATATTACTTTATTTTCTGTATTGAAAGCTCGATTATGC
# B3: rrpBprobe (rrpB WT) (dsDNA)
# DNA 1: TTAAAAAATATGTTATAATTTTAAAAAATAAGGATTTATAATGAAAAAATAT
# DNA 2: ATATTTTTTCATTATAAATCCTTATTTTTTAAAATTATAACATATTTTTTAA
# B4: rrpB (-1) (dsDNA)
# DNA 1: B3 DNA 1 with T36C, T37G, A38G, T39A, A40T, A41C
# DNA 2: B3 DNA 2 with T12G, T13A, A14T, T15C, A16C, A17G
# B5: rrpB (-2) (dsDNA)
# DNA 1: TTAAAAAATATGCGGATCTTTTAAAAAATAAGGATCGGATCTGAAAAAATAT
# DNA 2: ATATTTTTTCAGATCCGATCCTTATTTTTTAAAAGATCCGCATATTTTTTAA
# B6: nfrAprobe (dsDNA)
# DNA 1: TAGATCTTTAATATTTATATAAATGATGATTTTTAGTTCATCTATAATAAAATATTATATCA
# DNA 2: TGATATAATATTTTATTATAGATGAACTAAAAATCATCATTTATATAAATATTAAAGATCTA
# B7: rrpAprobe (dsDNA)
# DNA 1: GCATAATATCATTTTCAATACAGAAAATAAAGTAATATACTATACTAAAGGAATGTTAAATGA
# DNA 2: TCATTTAACATTCCTTTAGTATAGTATATTACTTTATTTTCTGTATTGAAAATGATATTATGC
# B8: rrpA (-1) (dsDNA)
# DNA 1: B7 DNA 1 with A39C, C40G, T41A, A42G, T43C
# DNA 2: B7 DNA 2 with A21G, T22C, A23T, G24C, T25G
# B9: mdaBprobe (dsDNA)
# DNA 1: AAATTTAAAATACTATGTTAATATTGAATCGTATTATAGTAAAAGTT
# DNA 2: AACTTTTACTATAATACGATTCAATATTAACATAGTATTTTAAATTT
# What was measured:
# NfrA (NfrAhis6) = biological target: T3, NfrA (NfrAhis6) (Campylobacter jejuni, UniProt Q0P871); test: NADPH oxidation at […] nm; assay type: biochemical; details: riboflavin as acceptor; pH ~7.5
# T3 construct: gene Cj1555c; recombinant His6-tagged (pET21a+), E. coli BL21(DE3), Ni-NTA
# MdaB (MdaBhis6) = biological target: T4, MdaB (MdaBhis6) (Campylobacter jejuni, UniProt Q0P880); test: NADPH oxidation at […] nm; assay type: biochemical; details: 0.2 mM quinone substrates; 200 μM NADPH; 50 mM Tris-HCl, 100 mM NaCl, 10% DMSO; pH ~7.5; 37°C; anaerobic
# T4 construct: gene Cj1545c; recombinant His6-tagged (pET21a+), E. coli BL21(DE3), Ni-NTA
# RrpA [1] = biological target: T1, RrpA; test: EMSA; EMSA: Odyssey infrared EMSA kit, 50 nM probe, 20 ul, 6% gel at 4 C. Footprinting: 10 mM Tris-HCl pH 8.5, 30 mM K-glutamate, 1 mM DTT, 5 mM Mg acetate, 2 mM CaCl2, 0.125 mg/ml BSA, 30% glycerol, 25 C; details: protein: recombinant; tags: C-terminal His6 (pET21a); chain copies: 2
# RrpB [2] = biological target: T2, RrpB; test: EMSA; DTT (higher complex); EMSA: Odyssey infrared EMSA kit, 50 nM probe, 20 ul, 6% gel at 4 C. Footprinting: 10 mM Tris-HCl pH 8.5, 30 mM K-glutamate, 1 mM DTT, 5 mM Mg acetate, 2 mM CaCl2, 0.125 mg/ml BSA, 30% glycerol, 25 C; details: protein: recombinant; tags: C-terminal His6 (pET21a); chain copies: 2; label: 5' IRDye 800
# RrpB [3] = biological target: T2, RrpB; test: EMSA; EMSA: Odyssey infrared EMSA kit, 50 nM probe, 20 ul, 6% gel at 4 C. Footprinting: 10 mM Tris-HCl pH 8.5, 30 mM K-glutamate, 1 mM DTT, 5 mM Mg acetate, 2 mM CaCl2, 0.125 mg/ml BSA, 30% glycerol, 25 C; details: protein: recombinant; tags: C-terminal His6 (pET21a); chain copies: 2
# RrpA [4] = biological target: T1, RrpA; test: EMSA; 0.05 ug protein, 50 nM DNA; EMSA: Odyssey infrared EMSA kit, 50 nM probe, 20 ul, 6% gel at 4 C. Footprinting: 10 mM Tris-HCl pH 8.5, 30 mM K-glutamate, 1 mM DTT, 5 mM Mg acetate, 2 mM CaCl2, 0.125 mg/ml BSA, 30% glycerol, 25 C; details: protein: recombinant; tags: C-terminal His6 (pET21a); chain copies: 2; label: 5' IRDye 800
# T4 sequence (Q0P880 entry or part of it): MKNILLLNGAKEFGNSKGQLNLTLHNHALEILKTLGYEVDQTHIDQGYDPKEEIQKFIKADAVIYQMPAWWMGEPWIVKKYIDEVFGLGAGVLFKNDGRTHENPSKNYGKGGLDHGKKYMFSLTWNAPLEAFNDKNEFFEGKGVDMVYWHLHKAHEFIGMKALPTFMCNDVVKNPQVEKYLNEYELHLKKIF
# T3 sequence (Q0P871 entry or part of it): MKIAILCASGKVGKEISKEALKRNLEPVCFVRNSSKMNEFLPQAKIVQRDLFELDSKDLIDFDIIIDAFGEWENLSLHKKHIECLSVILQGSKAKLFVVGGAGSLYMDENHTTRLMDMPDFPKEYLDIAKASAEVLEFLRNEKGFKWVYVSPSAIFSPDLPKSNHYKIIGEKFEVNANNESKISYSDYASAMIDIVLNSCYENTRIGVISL
molecule,measurement,setting,value
NC(=O)C1=CN([C@@H]2O[C@H](COP(=O)(O)OP(=O)(O)OC[C@H]3O[C@@H](n4cnc5c(N)ncnc54)[C@H](OP(=O)(O)O)[C@@H]3O)[C@@H](O)[C@H]2O)C=CC1 [NADPH],specific activity,NfrA (NfrAhis6),This was indicative of NfrA’s preference for NADPH over NADH
same,specific activity,MdaB (MdaBhis6),reductase activity of MdaB was determined by monitoring the oxidation of NADPH
B1,binding result,RrpA [1],binds
B2,binding result,RrpA [1],no binding
B3,binding result,RrpB [2],binds
B4,binding result,RrpB [3],binds
B5,binding result,RrpB [3],no binding
B6,binding result,RrpB [2],binds
B7,binding result,RrpA [4],binds
B8,binding result,RrpA [1],binds
B9,binding result,RrpA [4],binds
